According to article PMC8298602, “14-3-3-protein regulates Nedd4-2 by modulating interactions between HECT and WW domains” (Communications Biology, 2021):

Legend:
[1] = molecular target: phosphorylated Nedd4-2^186–975 (human) (UniProt Q96PU5); assay: AUC; sedimentation velocity, 20 °C, 50 mM Tris-HCl pH 8.0, 500 mM NaCl, 1 mM TCEP, 0.01% NP-40; 3 μM pNedd4-2^186–975 alone, 6 μM 14-3-3η alone, mixtures 1:1 and 1:2; 300 nM pNedd4-2^186–975 with 0.06−6 μM 14-3-3η; apparent KD, sw isotherm and Lamm-equation modelling, 14-3-3η dimer + one pNedd4-2
[2] = molecular target: phosphorylated Nedd4-2^186–975 (human) (UniProt Q96PU5); assay: SEC-SAXS; Superdex 200 Increase 5/150 GL, 20 mM Tris-HCl pH 7.5, 150 mM NaCl, 1 mM TCEP, 3% glycerol, 293.15 K; loaded 2.2 mg/ml Nedd4-2^186–975, 2 mg/ml 14-3-3η, 8.9 mg/ml complex (1:2, 60 μM)

phosphorylated Nedd4-2^186–975 (human), sequence (Q96PU5 186-975): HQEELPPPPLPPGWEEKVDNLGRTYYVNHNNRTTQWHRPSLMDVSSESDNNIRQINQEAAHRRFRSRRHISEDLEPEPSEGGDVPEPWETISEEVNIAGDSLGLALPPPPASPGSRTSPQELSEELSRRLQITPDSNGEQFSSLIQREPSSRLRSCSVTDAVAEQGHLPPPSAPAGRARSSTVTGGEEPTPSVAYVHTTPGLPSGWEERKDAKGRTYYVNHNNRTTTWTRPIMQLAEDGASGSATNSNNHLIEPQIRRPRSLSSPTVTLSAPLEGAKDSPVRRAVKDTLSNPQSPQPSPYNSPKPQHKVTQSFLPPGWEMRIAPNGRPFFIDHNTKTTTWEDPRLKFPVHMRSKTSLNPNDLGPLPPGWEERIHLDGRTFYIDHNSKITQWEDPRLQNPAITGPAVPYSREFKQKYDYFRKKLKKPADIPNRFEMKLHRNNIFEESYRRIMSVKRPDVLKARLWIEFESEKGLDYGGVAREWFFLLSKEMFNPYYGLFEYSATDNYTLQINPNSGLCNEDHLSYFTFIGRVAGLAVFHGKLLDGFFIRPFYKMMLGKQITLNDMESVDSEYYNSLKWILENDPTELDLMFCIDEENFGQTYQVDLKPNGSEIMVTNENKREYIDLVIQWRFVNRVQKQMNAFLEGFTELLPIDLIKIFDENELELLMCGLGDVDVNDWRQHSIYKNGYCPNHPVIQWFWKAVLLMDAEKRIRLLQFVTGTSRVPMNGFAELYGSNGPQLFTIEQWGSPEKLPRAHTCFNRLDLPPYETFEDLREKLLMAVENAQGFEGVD

**Q.** What does the source list for “14-3-3η (from UniProt Q04917 1-246) (natural protein)”?
**A.** Kd [1]: < 50 nM; stoichiometry N (14-3-3η protomers per Nedd4-2 protomer) [1]: 2; stoichiometry N (14-3-3η protomers per Nedd4-2 protomer) [2]: 2
